According to the supplement of paper PMC10567573:

B1: TOR1AIP2 (parent)
chain: HHVADAYTSSQKVSPIQIDGAGRT
B2: ZBTB22 (parent)
chain: RPFDCPVCNKKFKMKHHLTEHMKT

Variants of: B1
Experiment: protein stability index of a GFP-peptide fusion (GPS, HEK-293T) (PSI 1-6); higher = more stable
Settings: c terminus: a fixed tail appended
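Further: lentivirally expressed fusions sorted by FACS into six bins by GFP to DsRed ratio, PSI derived from sequencing read proportions per bin multiplied by bin number.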

Protein stability index: each site, then its substitutions
H1: D 4.91, A 4.54, E 4.66, K 3.94, L 3.81, M 3.93, C 3.67, F 2.69, I 3.14, G 4.43

Variants of: B2
Experiment: as above
Settings: c terminus: a fixed tail appended

Protein stability index: each site, then its substitutions
H16: G 2.11, W 2.27, P 2.25, A 2.59, E 3.27, Q 2.7, Y 2.28, N 2.71, I 2.08, M 2.71, R 2.29, T 2.39, D 2.56, K 2.55
T19: L 2.8, R 3.34, S 2.35, H 2.8, C 4.25, M 3.18, I 3.07, F 2.28, E 3.39, P 2.48, K 2.48, N 2.88, Q 2.33
N9: R 2.03, A 2.95, P 2.43, W 1.49, D 3.13, L 2.83, K 3.23, F 2.27, M 2.54, V 2.06, T 2.27
F3: V 2.85, Q 2.86, P 2.74, L 2.35, W 2.57, E 2.6, G 2.49, C 2.98, Y 3.1, D 2.93, N 3.06, R 1.98
K15: D 2.85, W 2.47, A 2.03, V 2.62, P 2.67, G 2.78, Q 2.26, N 2.12, C 4.13, R 2.19, Y 2.37, H 2.24, S 2.22, F 2.39, M 2.24
H21: Y 2.2, P 2.37, E 2.88, A 2.74, I 1.84, W 2.13, Q 2.34, N 2.38, G 2.38, S 2.52, C 3.33, F 2.06, K 2.25, D 2.37, L 1.45, T 2.24, M 1.54
M14: T 3.75, L 2.46, F 2.84, E 3.72, K 2.93, A 3.09, D 3.75, C 3.9, P 2.5, H 3.48, N 3.89, R 3.14, W 2.26
V7: R 2.39, Y 3, C 3.91, W 2.85, I 3.09, E 3.58, A 2.21, P 2.7, N 2.48, S 2.77, K 2.96, H 3.27, T 2.47
P2: W 2.52, K 2.83, A 2.83, M 2.46, V 2.12, C 2.19, H 2.97, L 2.3, F 2.72, Q 2.76, E 3.26, D 3.24, G 2.46, R 2.12, T 3.84
M22: K 2.92, Y 2.72, F 2.3, Q 2.71, G 2.68, E 3, C 2.93, N 2.62, I 2.15, T 2.38, R 2.48, A 2.48, W 2.43, S 2.29, V 1.89, L 2.95
R1: V 2.74, G 3.08, A 3, H 2.88, S 2.71, M 2.71, D 3.31, Y 2.38, L 2.35, T 2.96, I 2.87, F 2.38, P 3.17, W 2.09
F12: K 2.1, N 1.96, Q 2.6, W 2.02, R 1.83, C 4.09, G 2.65, V 2.04, M 2.78, D 2.22, T 2.64, A 2.44, P 2.5
K10: T 2.96, D 2.43, P 2.31, M 2.46, C 2.49, F 2.34, S 2.63, W 1.7, E 3.01, R 2.37, Q 2.21, A 2.52
P6: W 1.86, M 2.03, N 2.68, F 2.15, K 2.9, V 2.37, Q 2.32, T 2.45, H 2.27, A 2.65, S 2.42
E20: G 2.73, C 2.83, L 1.83, Q 2.8, Y 1.85, T 2.31, N 3, P 2.11, D 2.99, A 2.78, H 2.44, M 2.62, S 1.93, F 2.21, I 2.21
K13: Y 2.72, L 2.89, I 2.14, D 3.45, P 2.74, Q 3.12, S 2.91, W 2.58, V 2.9, A 2.85, F 2.33, N 2.29
L18: P 2.37, K 2.78, Y 2.25, S 2.44, V 3.5, E 2.78, N 2.59, M 2.19, W 2.59, G 3.36
K23: S 2.4, I 2.38, V 2.37, Q 3.34, H 3.06, Y 2.17, G 2.99, W 1.98, D 2.61
C8: I 2.72, L 2.92, Q 2.81, D 3.25, N 2.98, R 3.08, V 3.5, Y 2.9, E 2.97, P 2.62, G 2.8, T 3.48, M 2.93
T24: K 2.43, L 3.19, E 3.21, F 2.46, W 2.22, I 1.95, R 2.84, H 2.41, N 2.54, C 3.07, Q 2.53, Y 2.01, A 2.87, G 2.44, D 3.55, V 2.34
D4: S 3.5, E 3.6, Q 3.46, K 3.28, I 3.62, V 3.54, A 3.31, N 2.88, L 2.92, G 2.73, P 1.71, H 2.87, C 3.54, W 2.6
K11: L 2.25, H 2.85, R 2.8, G 2.43, A 2.23, V 2.52, T 2.91, W 2.21, D 2.55, P 2.34, M 1.84, I 2.36, Q 2.31, C 2.44, E 2.89, N 2.79, F 1.8
C5: M 2.9, R 3.21, L 2.6, G 3.3, K 3.19, P 3.23, N 3, I 2.64, Y 2.93, H 2.78, F 2.66, S 3.15, Q 2.94, T 3.71, A 2.51
H17: A 2.17, Y 1.95, C 2.25, I 1.79, F 1.73, L 1.94, K 3.1, M 2.42, Q 2.74, T 2.15, E 3.42, V 2.24, P 2.19, W 2.08
